In PMC12432433 one finds stoichiometry N and fraction of sample in peak 1 (tetramer) data, which are given here for two substances.

For test [1], the target named is LbXyn43B/Thr274Ala (Levilactobacillus brevis DSM 1269). Put plainly: SEC; Sephacryl S-300 (110 mL), 0.1 mL/min, 50 mM sodium phosphate, 150 mM NaCl, pH 7.0; calibrated with molecular weight standards of 20-700 kDa; apparent molecular mass.
Test [2] shares this target. As to the kind of experiment: SEC-MALS; OMNISEC multi-detection SEC: Superdex 200 Increase 10/300 GL, light scattering (RALS 90°, LALS 7°), refractive index, viscometer, UV/VIS; 50 µL of 4.5 mg/mL injected in triplicate; 50 mM sodium phosphate, pH 7, 150 mM NaCl; 0.5 mL/min. In general terms: In gel filtration, larger molecules generally elute earlier.
For test [3], the target named is β-D-xylosidase LbXyn43B from Levilactobacillus brevis DSM1269 (Levilactobacillus brevis DSM 1269). As to the kind of experiment: SEC; Sephacryl S-300 (110 mL), 0.1 mL/min, 50 mM sodium phosphate, 150 mM NaCl, pH 7.0; calibrated with molecular weight standards of 20-700 kDa; apparent molecular mass.
Test [4] shares this target. Put plainly: crystal structure; X-ray, 1.9 Å, space group P 1 21 1, four chains (A-D); crystals from 27-29% PEG 1500, 60-140 mM malonate-imidazole-borate buffer, pH 4.0-4.5, 4°C.
For test [5] the target is unchanged. Put plainly: SEC-MALS; OMNISEC multi-detection SEC: Superdex 200 Increase 10/300 GL, light scattering (RALS 90°, LALS 7°), refractive index, viscometer, UV/VIS; 50 µL of 4.5 mg/mL injected in triplicate; 50 mM sodium phosphate, pH 7, 150 mM NaCl; 0.5 mL/min.

For orientation: stoichiometry N means a count of units in the complex or per binding partner.

Turning to LbXyn43B/Thr274Ala (enzyme), the stoichiometry N in test [1] turned out to be 3; in test [2], 4. In test [2], this substance returned a fraction of sample in peak 1 (tetramer) of 91.3%.

Consider “β-D-xylosidase LbXyn43B from Levilactobacillus brevis DSM1269 (enzyme)”, for which the stoichiometry N in test [3], in test [4] and in test [5] was 4 throughout. In test [5], this substance gave a fraction of sample in peak 1 (tetramer) of 84.9%.
